Results as given in patent US20240101685A1, “NEAR INFRARED PHOTOIMMUNOTHERAPY (NIR-PIT) COMBINATION THERAPY TO TREAT CANCER” (THE UNITED STATES OF AMERICA, as represented by the …, priority 2021, published 2024).

System: PD-L1 expression on cancer cell lines MC38-luc and LL2-luc
Assay: Flow-cytometric analysis of PD-L1 expression with or without interferon gamma
Assay type: cell-based
Settings: cell culture, 20 ng/ml or 50 ng/ml IFNgamma
Procedure: FIG. 12: Flow cytometry analysis showing PD-L1 expression in cancer cell lines before and after stimulation with 20 ng/ml or 50 ng/ml IFNgamma (IFNγ).

B1: interferon gamma: immunoactivator cytokine (protein, UniProt P01579 24-161, looked up)
Interferon gamma: QDPYVKEAENLKKYFNAGHSDVADNGTLFLGILKNWKEESDRKIMQSQIVSFYFKLFKNFKDDQSIQKSVETIKEDMNVKFFNSNKKKRDDFEKLTNYSVTDLNVQRKAIHELIQVMAELSPAAKTGKRKRSQMLFRG
PD-L1 expression: conditionally enhanced the expression of PD-L1 | PD-L1 expression (listed as IFN-gamma): PD-L1 expression increases
